Data published in patent US20240116985A1 (published 2024).
Starred links: 1 amine or outer side, 2 acyl side, 3 side chain; linkers in the order of their positions; H or OH if unused. Positions of bridges follow the written chain, without caps; N, C: chain ends. Non-standard residues stand in square brackets, D forms with d. Primed or numbered codes have the meaning given here. No end group written: not given here. (Pfbn)GA″ = [Pfbn]GA: (S)-2-amino-3-((carboxymethyl)((perfluorophenyl)methyl)amino)propanoic acid, O=C([C@H](CN(CC(=O)[*:3])Cc1c(F)c(F)c(F)c(F)c1F)N[*:1])[*:2]; PyrS2″ = (S)-3-amino-1-((pent-4-en-1-yloxy)carbonyl)pyrrolidine-3-carboxylic acid (stapling residue), C=CCCCOC(=O)N1CC[C@@](N[*:1])(C(=O)[*:2])C1; (Me2NPr)GAbu = (S)-2-amino-4-(N-(carboxymethyl)-3-(dimethylamino)propanamido)butanoic acid, CN(C)CCC(=O)N(CC[C@H](N[*:1])C(=O)[*:2])CC(=O)[*:3]; (Tfp)GA = [Tfp]GA: (S)-2-amino-3-((carboxymethyl)(3,3,3-trifluoropropyl)amino)propanoic acid, O=C([C@H](CN(CCC(F)(F)F)CC(=O)[*:3])N[*:1])[*:2]; B5(4) = 2,2-bis(4-pentenyl)glycine = 2-amino-2-(pent-4-en-1-yl)hept-6-enoic acid (stitching residue), C=CCCCC(CCCC=C)(N[*:1])C(=O)[*:2]; (Tfp)GA″ = (S)-2-amino-3-((carboxymethyl)(3,3,3-trifluoropropyl)amino)propanoic acid, O=C([C@H](CN(CCC(F)(F)F)CC(=O)[*:3])N[*:1])[*:2]; (Tfb)GA = (S)-2-amino-3-((carboxymethyl)(4,4,4-trifluorobutyl)amino)propanoic acid, O=C([C@H](CN(CCCC(F)(F)F)CC(=O)[*:3])N[*:1])[*:2]; TfeGA = (S)-2-amino-3-((carboxymethyl)(2,2,2-trifluoroethyl)amino)propanoic acid, O=C([C@H](CN(CC(=O)[*:3])CC(F)(F)F)N[*:1])[*:2]; (sBu)GA = [sBu]GA: (2S)-2-amino-3-(sec-butyl(carboxymethyl)amino)propanoic acid, CCC(C)N(CC(=O)[*:3])C[C@H](N[*:1])C(=O)[*:2]; PyrS2 = (S)-3-amino-1-((pent-4-en-1-yloxy)carbonyl)pyrrolidine-3-carboxylic acid, C=CCCCOC(=O)N1CC[C@@](N[*:1])(C(=O)[*:2])C1; (Bn)GA″ = [Bn]GA: (S)-2-amino-3-(benzyl(carboxymethyl)amino)propanoic acid, O=C([C@H](CN(CC(=O)[*:3])Cc1ccccc1)N[*:1])[*:2]; (Me)GA″ = [Me]GA: (S)-2-amino-3-((carboxymethyl)(methyl)amino)propanoic acid, CN(CC(=O)[*:3])C[C@H](N[*:1])C(=O)[*:2]; (Et)GA = [Et]GA: (S)-2-amino-3-((carboxymethyl)(ethyl)amino)propanoic acid, CCN(CC(=O)[*:3])C[C@H](N[*:1])C(=O)[*:2]; (Bn)GA = (S)-2-amino-3-(benzyl(carboxymethyl)amino)propanoic acid, O=C([C@H](CN(CC(=O)[*:3])Cc1ccccc1)N[*:1])[*:2]; B5(22) = 2-amino-2-(pent-4-en-1-yl)hept-6-enoic acid (two alkene side chains), C=CCCCC(CCCC=C)(N[*:1])C(=O)[*:2]; (Me)GA = (S)-2-amino-3-((carboxymethyl)(methyl)amino)propanoic acid, CN(CC(=O)[*:3])C[C@H](N[*:1])C(=O)[*:2]; B5(3) = 2,2-bis(4-pentenyl)glycine (stitching residue), C=CCCCC(CCCC=C)(N[*:1])C(=O)[*:2]; B5 = 2-amino-2-(pent-4-en-1-yl)hept-6-enoic acid, C=CCCCC(CCCC=C)(N[*:1])C(=O)[*:2]; Phe(2-Br) = N[C@@H](Cc1ccccc1Br)C(=O)O; Phe(2-Cl) = N[C@@H](Cc1ccccc1Cl)C(=O)O; Phe(2-OMe) = COc1ccccc1C[C@H](N)C(=O)O; Phe(2-Me) = Cc1ccccc1C[C@H](N)C(=O)O; Bta = N[C@@H](Cc1csc2ccccc12)C(=O)O; Lys(iPr) = CC(C)NCCCC[C@H](N)C(=O)O; αAllylPro = C=CC[C@@]1(C(=O)O)CCCN1; tBuAla = CC(C)(C)C[C@H](N)C(=O)O; 3Thi = N[C@@H](Cc1ccsc1)C(=O)O; Cha = N[C@@H](CC1CCCCC1)C(=O)O; S8 = C=CCCCCCC[C@](C)(N)C(=O)O; PyrS2(4) = not defined here

T1: B-cat-Halo (UniProt P35222 1-781)
T1 sequence (looked up): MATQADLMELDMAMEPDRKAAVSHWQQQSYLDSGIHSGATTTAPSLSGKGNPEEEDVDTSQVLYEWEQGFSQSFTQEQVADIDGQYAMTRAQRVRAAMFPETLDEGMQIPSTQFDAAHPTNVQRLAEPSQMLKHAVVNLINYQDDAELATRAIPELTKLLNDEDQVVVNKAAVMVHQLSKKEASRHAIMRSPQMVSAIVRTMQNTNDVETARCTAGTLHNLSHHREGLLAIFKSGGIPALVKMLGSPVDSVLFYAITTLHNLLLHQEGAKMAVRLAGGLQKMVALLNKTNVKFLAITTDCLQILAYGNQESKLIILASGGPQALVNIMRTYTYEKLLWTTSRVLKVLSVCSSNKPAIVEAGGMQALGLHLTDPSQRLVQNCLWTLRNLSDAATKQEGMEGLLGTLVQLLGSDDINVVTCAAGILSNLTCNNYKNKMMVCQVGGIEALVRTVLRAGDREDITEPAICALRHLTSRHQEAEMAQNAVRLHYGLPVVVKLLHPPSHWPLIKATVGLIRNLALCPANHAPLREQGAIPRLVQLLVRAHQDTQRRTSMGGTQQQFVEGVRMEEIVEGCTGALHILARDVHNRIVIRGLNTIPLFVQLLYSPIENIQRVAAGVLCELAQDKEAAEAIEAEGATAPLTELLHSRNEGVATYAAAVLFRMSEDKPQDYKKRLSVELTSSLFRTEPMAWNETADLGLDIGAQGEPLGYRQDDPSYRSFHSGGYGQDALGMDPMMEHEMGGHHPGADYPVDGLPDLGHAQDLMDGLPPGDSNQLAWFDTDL

T2: B-cat-Halo (UniProt P35222 1-781)
T2 sequence (looked up): T1 sequence (looked up)

T3: B-cat-Halo (UniProt P35222 1-781)
T3 sequence (looked up): T1 sequence (looked up)

B1: I-2244 (peptide)
peptide: Ac-[αAllylPro]D[tBuAla][B5(22)]D[(Me2NPr)GAbu]AAFL[PyrS2][3Thi][Bta]Q-NH2
modifications: staple 1-4, 4-11
B2: I-1325 (peptide)
peptide: [αAllylPro]D[tBuAla][B5(4)]DDAAFF[PyrS2″][Phe(2-Br)][Bta]Q-NH2
modifications: staple 1-4, 4-11
B3: I-1326 (peptide)
peptide: [αAllylPro]D[tBuAla][B5(4)]DDAAFF[PyrS2″][Phe(2-Me)][Bta]Q-NH2
modifications: staple 1-4, 4-11
B4: I-1327 (peptide)
peptide: [αAllylPro]D[tBuAla][B5(4)]DDAAFL[PyrS2″][Phe(2-OMe)][Bta]Q-NH2
modifications: staple 1-4, 4-11
B5: I-1328 (peptide)
peptide: [αAllylPro]D[tBuAla][B5(4)]DDAAFF[PyrS2″][Phe(2-OMe)][Bta]Q-NH2
modifications: staple 1-4, 4-11
B6: I-1329 (peptide)
peptide: [αAllylPro]D[tBuAla][B5]DDAAFN[PyrS2][Cha][Bta]Q-NH2
modifications: staple 1-4, 4-11
B7: I-1615 (peptide)
peptide: Ac-[αAllylPro]D[tBuAla][B5(3)]D[TfeGA]AAFT[PyrS2″][Phe(2-Cl)][Bta][Lys(iPr)]-NH2
modifications: staple 1-4, 4-11
B8: I-1622 (peptide)
peptide: Ac-[αAllylPro]D[tBuAla][B5(3)]D[(Et)GA]AAFN[PyrS2(4)][Phe(2-Cl)][Bta]Q-NH2
modifications: staple 1-4, 4-11; not fully specified; printed as Ac-PL3-Asp-Npg-B5-Asp-[Et]GA-Ala-Ala-Phe-Asn-PyrS2-2C1F-BztA-Gln-NH2; reading uncertain
B9: I-1623 (peptide)
peptide: Ac-[αAllylPro]D[tBuAla][B5(3)]D[(sBu)GA]AAFN[PyrS2″][Phe(2-Cl)][Bta]Q-NH2
modifications: staple 1-4, 4-11
B10: I-1624 (peptide)
peptide: Ac-[αAllylPro]D[tBuAla][B5(3)]D[(Pfbn)GA″]AAFN[S8][3Thi][Bta]Q-NH2
modifications: staple 1-4, 4-11
B11: I-1625 (peptide)
peptide: Ac-[αAllylPro]D[tBuAla][B5(3)]D[(Tfp)GA]AAFN[S8][3Thi][Bta]Q-NH2
modifications: staple 1-4, 4-11
B12: I-1627 (peptide)
peptide: Ac-[αAllylPro]D[tBuAla][B5(3)]D[(Et)GA]AAFN[S8][3Thi][Bta]Q-NH2
modifications: staple 1-4, 4-11; also: earlier eluting staple isomer
B13: I-1628 (peptide)
peptide: Ac-[αAllylPro]D[tBuAla][B5(3)]D[(Et)GA]AAFN[S8][3Thi][Bta]Q-NH2
modifications: staple 1-4, 4-11; also: later eluting staple isomer
B14: I-1630 (peptide)
peptide: Ac-[αAllylPro]D[tBuAla][B5(3)]D[(Bn)GA″]AAFL[PyrS2″][3Thi][Bta]Q-NH2
modifications: staple 1-4, 4-11
B15: I-1631 (peptide)
peptide: Ac-[αAllylPro]D[tBuAla][B5(3)]D[(Me)GA″]AAFL[PyrS2″][3Thi][Bta]Q-NH2
modifications: staple 1-4, 4-11
B16: I-1633 (peptide)
peptide: Ac-[αAllylPro]D[tBuAla][B5(3)]D[(Tfp)GA″]AAFL[PyrS2][3Thi][Bta]Q-NH2
modifications: staple 1-4, 4-11
B17: I-1634 (peptide)
peptide: Ac-[αAllylPro]D[tBuAla][B5(3)]D[(Tfb)GA]AAFN[PyrS2][3Thi][Bta]Q-NH2
modifications: staple 1-4, 4-11
B18: I-1635 (peptide)
peptide: Ac-[αAllylPro]D[tBuAla][B5(3)]D[(Bn)GA]AAFN[PyrS2][3Thi][Bta]Q-NH2
modifications: staple 1-4, 4-11
B19: I-1636 (peptide)
peptide: Ac-[αAllylPro]D[tBuAla][B5(3)]D[(Me)GA]AAFN[PyrS2][3Thi][Bta]Q-NH2
modifications: staple 1-4, 4-11; also: earlier eluting staple isomer

What follows are binders tested against T1, B-cat-Halo (assay: cell-based or functional assay).

B1 was tested, and the “NanoBRET Abs IC50” value was 27.4 µM.

These binders were tested against T2, B-cat-Halo (assay: cell-based or functional assay).

Point of comparison: B3, “NanoBRET Abs IC50” value 6.2 µM. Against it:
- B2 — within 1.5-fold, 5.7 µM
- B4 — within 1.5-fold, 7 µM
- B5 — within 1.5-fold, 5.4 µM
- B6 — 5.6-fold higher, 35 µM

What follows are binders tested against T3, B-cat-Halo (assay: cell-based or functional assay).

Point of comparison: B7, “NanoBRET Abs IC50” value 8 µM. Against it:
- B8 — higher, > 20 µM
- B9 — 3.5-fold higher, 27.7 µM
- B10 — 5.4-fold higher, 42.9 µM
- B11 — 3.7-fold higher, 29.3 µM
- B12 — higher, > 20 µM
- B13 — higher, > 20 µM
- B14 — 1.6-fold lower, 5 µM
- B15 — 3.8-fold higher, 30.1 µM
- B16 — 1.5-fold lower, 5.2 µM
- B17 — 2.1-fold higher, 16.5 µM
- B18 — 2.6-fold higher, 20.6 µM
- B19 — higher, > 20 µM
